Experiment: soluble on expression in E. coli; label from the status in PepcDB or PDB records

| Sequence | soluble on expression in E. coli |
| --- | --- |
| STSELDIFVGNTTLIDEDVYRLWLDGYSVTDAVALRVRSGILEQTGATAAVLQSDTMDHYRTFHMLERLLHAPPKLLHQLIFQIPPSRQALLIERYYAFDEAFVREVLGKKLSKGTKKDLDDISTKTGITLKSCRRQFDNFKRVFKVVEEMRGSLVDNIQQHFLLSDRLARDYAAIVFFANNRFETGKKKLQYLSFGDFAFCAELMIQNWTLGAVDSQMDDMDMDLDKEFLQDLKELKVLVADKDLLDLHKSLVCTALRGKLGVFSEMEANFKNLSRGLVNVAAKLTHNKDVRDLFVDLVEKFVEPCRSDHWPLSDVRFFLNQYSASVHSLDGFRHQALWDRYMGTLRGCLLRLYHD | soluble |
| MAHHHHHHMANIITLKSAWDVDRHIVLDSADKLVLIRFSSYTSAAVEAEEYSRQVKRGTATSTSTVAEGSSNSSSSALPTRKRRHDDADGNSACAVTSAATAALLSANVDEHYLRTRQMDALLSELAPKVRKYCTIYFVDTREVTAFNELYELGHDRDPFAVMFFYRNRHIRVDVGTGNNNKINFFAFEDLYDFLPIVDAAYKAGRQGRSIASCDRKFSTVALRR | soluble |
| MSSSSGNQNSKEHKVAVTHDLGKTNVPEHPKRVVVLELGFIDTLLDLGITPVGVADDNKAKQLINKDVLKKIDGYTSVGTRSQPSMEKIASLKPDLIIADTTRHKKVYDQLKKIAPTIALNNLNADYQDTIDASLTIAKAVGKEKEMEKKLTAHEEKLSETKQKISANSQSVLLIGNTNDTIMARDENFFTSRLLTQVGYRYAISTSGNSDSSNGGDSVNMKMTLEQLLKTDPDVIILMTGKTDDLDADGKRPIEKNVLWKKLKAVKNGHVYHVDRAVWSLRRSVDGANAILDELQKEMPAAKKLEHHHHHH | not soluble |
| MLNDVFILTQIKEGNIKAFETLFRQYYTPLRLYAASITGVPDVAEEIVEELFYVFWKDREKLEIFHSVKNYLYRSVRNRSIQYCEHQDVKRRYQDAILSVPVNIASPDPQEQIEYKELQQIINRTLEKLPERRLHIFRLHHTEGKKYSEIASLLSLSVKTVEKEMTRALRTLRKEIENYIQIS | not soluble |
| MEGISKPMERYDSVVFAGMKQDGTIEFIKVYALNEDLAITILDQFLRENNLHPSDFVVIQRGLEDIKGKDIISTRTEEDLSAMLARLGLRLVSNGVLHTRGAEKIYQITAISKSLIERLQGEDKDKVSTIIKEEISIDFSNLKLPEKYMKKLLLLSLMEDTFILNRAELNVPEVIKRAVKGVVSIPRLIERDNIIIKVFDEELHTVQGSYLDRVIITPPVVHWDAHIDELDSFSFQEVEENVYEPPLFVKAMKGFLVLTEPPRDLVVMLLKLKRRGEVKVSLKGRQIRIPLNFTLVVDTKYPERYSGLKFPIRINLPPFDDETFAQMLSMVLGTKVPQDLVAMFPEEYKTFLGVEILSNLWKKLRKRGRKSEIELLKEMATIVTGGII | soluble |
| GMPTFNPELHAQTLNSERAYFVQPDADPAFTPHIGALVEMLTYARLTTLQAVEGLPEDQLWATAPGFANSIGTLLAHIAAVERVYHVLSFQGRDVTPEDDGAAYWGLTMGKEGTAPARLPTLDELRAELADARAETLRVFAAKDDAWLAEPLGPGWANQHWAWFHVMEDEVNHRGQLRLLRQVLAPEEGG | soluble |
| MGSDKIHHHHHHVMARIHNRDWCLACTSSLKELPRHVYFRAYSLKGGTCVQGHEHVWWQFLFARNGLMQVQAGATTLTLPPDYGVWIPPGCVHTLWIGEEVELESLYIEPTAVAIQDQEPRVVMVDEFVRAFIHHGCTSIPVKYDEDGADGRKVKVLLDSLQSLPDAPFNLPFPTEPRLLEVCLTIQSAPHLAHTLDESAGLARMSSRTFTRHFLRATGLPYHTWRQRMRLLGSLEMLRSDITVTEVALTIGYSTPSAFTHAFKQLFGKSPSRFTRPEPK | not soluble |
| MGSDKIHHHHHHAERISFFYPPFGEFSLSVDSLETFAKVGKIDRDFSFYASRATPQQLAQLRDLLQQRFNLTPTLVSQVTYSPIGEQLVQQLGKLLLTESRQNGFYAIRASLILAAADREGLTVVNLLRKFPSNTVRVNFTEGLRIVDDLSQLLKKKDEVVASLQKEAIAQAANSTVDFSKQPDLRSPGKFRWLKKSLELNDISRSRRLPVDIYLPTTQNSEPTDQNSPSPPFPLIVISHGLASDRSTFVYLAEHLASYGFAVAVLEHPGSNAKRFQEYFAGLASPPEPEEFIDRPLDIKYLLDELQRLEKSDPSLHGKLNFQQVGAIGQSFGGYTVLTLAGAKINFEQLRQDCNPNNSSFNLSLLLQCEASKLPQKNYELKDDRIKAIMAINPIDSLVLGEGGVSQIKMPVMLVAGSQDIFAPPVFEQIRPFTWLSDPNKYLALIENATHFSAIAEPTPENDVLPVPPALLGPDRDAVYSYLNALSVAFMETHLLNRPEYRSYLQPSYATFISKEPLNLSILQSLSVAQFNQIWSASIPQSAKLSNPQPTPR | not soluble |
| MGSDKIHHHHHHVQDKNFDKLAQKFAKNIYGTPKGDIRAAVLWRDLAPALAKLGDRKLRVLDAGGGFGYFSQKLARLGHEVVLCDISAEMLAQAQEQIDASPEPLAIQLIHAPIQALSVEQHGYFDIILCHAVVEWLTDAKPTMAGLLTMLKPAGLFSLMFYNKEAMRFHALVSGNFDYVAADLKVKKKVQLTPTHPLYIQEVKEWFSDWQMSLISQSGVRVIHDYLKKSQPVDFDYQKLLQMELEYSQREPYISLGRYVHFLGQSPAV | not soluble |
| MSFCSFFGGEVFQNHFEPGVYVCAKCSYELFSSHSKYAHSSPWPAFTETIHPDSVTKCPEKNRPEALKVSCGKCGNGLGHEFLNDGPKRGQSRFCIFSSSLKFVPKGKEAAASQGHLEHHHHHH | soluble |
| SMTTLFSKIKEVTELAAVSGHEAPVRAYLREKLTPHVDEVVTDGLGGIFGIKHSEAVDAPRVLVASHMDEVGFMVSEIKPDGTFRVVEIGGWNPMVVSSQRFKLLTRDGHEIPVISGSVPPHLTRGKGGPTMPAIADIVFDGGFADKAEAESFGIRPGDTIVPDSSAILTANEKNIISKAWDNRYGVLMVSELAEALSGQKLGNELYLGSNVQEEVGLRGAHTSTTKFDPEVFLAVDCSPAGDVYGGQGKIGDGTLIRFYDPGHLLLPGMKDFLLTTAEEAGIKYQYYCGKGGTDAGAAHLKNGGVPSTTIGVCARYIHSHQTLYAMDDFLEAQAFLQALVKKLDRSTVDLIKHY | soluble |
| MDLFDTPLAPLQVLDDAEGGVRYWPQLLAPAVAQAAFAALRDGADWQRHQRTMYDRVVDVPRLLASYRLDAPLPPGLPLQLLLAAVQAQLPAPYNAVGLNLYRDGRDSVAMHHDKLHTLLAPHPIALLSLGTPRRMQLRAKQGATRAITLELAPGSLLAMSHASQLTHEHGIPKTTRALGERISVVFRVRPPARMAAGQHGPHWEALTQTDLEHHHHHH | soluble |
| MGKITGFLEIERHDRKYTPVAERVKHFHEFVVPLTERETRDQAARCMNCGIPYCHGTGSVAPGTPGCPVNNQIPDFNDLVYQGNWEEASRNLHSTNNFPEFTGRICPAPCEASCTLNIDDNPVTIKTIECAIVDRAWDNGWLKPEVASVKTGKKVAVIGSGPAGMACAQQLARAGHDVHLFEKFAKAGGLLRYGIPDFKMEKGIIDRRVKQMEGEGVTFHYNSHVGADGNVDPREMLNEYDAVALTGGAEAPRDLPIPGRDLQGIHYAMDFLPQQNRRVSEEPLNGVTEILAGGKHVVVIGGGDTGSDCIGTSLRQGALSVTQLEIMPAPPERENKGLTWPNWPLKMRTSSSQAEGAIREFAVLTQKFSGENGQVKKLHCVRVDDKFKPIAGTEFELDAELVLLAMGFVHPVHEGLLKLLSVELDPRGNVKANTLDYQTSRPNVFTAGDMRRGQSLVVWAIREGRLCARSIDTFLMGKTDLPRLEHHHHHH | soluble |
| ISEFDSGETMREEQPHLATTWAARGWVEEEGIGSATLGRLVRAWPRRAAVVNKADILDEWADYDTLVPDYPLEIVPFAEHPLFLAAEPHQRQRVLTGMWIGYNERVIATEQLIAEPAFDLVMHGVFPGSDDPLIRKSVQQAIVDESFHTYMHMLAIDRTRELRKISERPPQPELVTYRRLRRVLADMPEQWERDIAVLVWGAVAETCINALLALLARDATIQPMHSLITTLHLRDETAHGSIVVEVVRELYARMNEQQRRALVRCLPIALEAFAEQDLSALLLELNAAGIRGAEEIVGDLRSTAGGTRLVRDFSGARKMVEQLGLDDAVDFDFPERPDWSPHTPR | soluble |
| MAPTPKFGPKKIQNVSAVSCSVKKYQASTSSPVPILNVQERVELRKLEQMLPVSPKNCDPADVVLRAASYIDQLVATVQARVKNGTLPMGALSSLPPQYSKPIKSSRRTVSSKKSRRSMEKKR | not soluble |

Source: the DeepSol protein solubility set
